Among the data in a protein production outcome set (Wang et al. 2014) are protein production values, retold here.

The nature of this data set: label from the status in PepcDB records.
Take “MEPIMRNPEDALLDSWHQNAQAWIDAVRHGAIESRRQVTDQAILLAILGRQPERVLDLGCGEGWLLRALADRGIEAVGVDGDRTLVDAARAAGAGEVHLASYAQLAEAKVPVGKDYDLICANFALLHQDIIELLSAMRTLLVPGGALVIQTLHPWSVADGDYQDGWREESFAGFAGDWQPMPWYFRTLASWLNALDMAGLRLVSLQEPQHPQSAVPQSLLMVAERH”: the protein production result is “failed”.

As for “MKQWADDENLPMERYKNYQMIVPAFIIKDILDGKIPETFEDSKNIKMIEASWGEESYTKGHIPTSVHVNTDIIEPPPTWMLDNDDNLTKFALDYGLTKDDTVIVSSSTPMASYRLAVILRYIGVKDVRVLNGGTNSWLSAGYELEFISNPKLEHHHHHH”, the protein production result is “failed”.

With “MGPKVSVITVCYNAEEFIENAIYSVLNQSYENIEYIIIDGASKDNTVSIINKYRSVMACFISEPDKGMYEAMNKGIKAATGDILYFLNSDDVFYDEYVVENVVKVFQKNNNVELIYGPIIIRDPTTNESFIKPHDYITKSYFIYNSICQQGIFYKASVFNKCGQFNDTYKIVGDYEWELRAFYKYNIKRKYYEGIIAIFRDGGMCNCDKFSDLHAKERTKVIKEYFNIFVIYKYKFLLFCRSAIKRLELEHHHHHH”, the protein production result was “failed”.

In the case of “MKNSNRLIYTDNLEESLEETASLFEHHIKFYTEIIEKDKKVIKTFNKDFKIEHAKEVISKAHLKHSELNAFLIAAPSYGIEAQNALLKILEEPPNNVCFIMFAKSQNHVLATIKSRLIKEDKRQKIPLKPLDLDLSKLDLKDIYAFLKNLDKENFDSRENQRERIESLLESVNRHKIPLNEQELQAFDLAIKANSSYYKLSYNLLPLLLSLLSKKKTP”, the protein production result was “failed”.

In the case of “MADVEIMQTVQTEVKKTTKKVKKSSKRRESEVQISEVEVDATIEERGGEYTKAMDKDWHSGHFCCWQCDESLTGQRYVIRDDHPYCIKCYENVFANTCEECNKIIGIDSKDLSYKDKHWHEACFLCFKCHLSLVDKQFGAKADKIYCGNCYDAQFASRCDGCGEVFRAGTKKMEYKTRQWHENCFCCCVCKTAIGTKSFIPREQEIYCAGCYEEKFATRCIKCNKVITSGGVTYKNEPWHRECFTCTHCNITLAGQRFTSRDEKPYCAECFGELFAKRCTACVKPITGIGGTRFISFEDRHWHHDCFVCASCKASLVGRGFITDGPDILCPDCAKQKLM”, the protein production entry is “failed”.

Turning to “MEKRFYILTIVVEDREKAYRQVNELLHNFSEDILLRVGYPVREENMAIIFLVLKTDNDTIGALSGKLGQISGVRVKTVPLKR”, the protein production entry is recorded as “not failed”.

With “MLWRKRLFAHLYPGLSARHEALVAERKRALFREALRRARPERVLEIGPGPGTNLAHLPEGVAYLALEPNPFFHPRLREEARKRGLALTLLPGRAEAIPLPGGSVDLVVATLVLCSVADPEKAIEEVHRVLRPGGAYLFLEHVAAPKGAPLRLLQEAATPFFVFFGDGCHPNRKTLAQIQARFPRVEAEAFSLPLPVVAPHVAGLAFKELEHHHHHH”, the protein production entry was “failed”.

As for “MSIMKDPNHSPHSGGMLLGFIGVAIFSQTLPFTRMAVAELDATFVALGRAVIAAALALALLAMRGALASGRRPRGGQWLRLAVTALGVVVGFPVFSSLAMREVPSGHGAIVIGLLPLATAVFAAWFGNERPSLGFWLSALAGSALVVAFALWQGAGGLQHADWYLFLAVVLGALGYAEGGKLSRELGGLETISWALVVSLPVLAPVVAWLGLEHAASIAAASPRAWLGMAYVSVFSMFIGFLFWYAGLAKGGVARVGQIQLLQPFLTLAGGALILAEPLDAATVAFAVAVIAVVALGRRAAVRNTAPAMPLASAAEEAPPILPGRLH”, the protein production result is listed as “failed”.

Take “MLTVIAEIRTRPGQHHRQAVLDQFAKIVPTVLKEEGCHGYAPMVDCAAGVSFQSMAPDSIVMIEQWESIAHLEAHLQTPHMKAYSEAVKGDVLEMNIRILQPGI”: the protein production result is listed as “not failed”.

As to “MVQTPSKPITLDEFLKLPETEPASEYIEGKIIQKPMPQGKHSAIQSECVSVINSVVKPQRIARAFLELRCTFGDHSTVPDISVFIWSRIPREENGEIANIFLIAPDWTIEILSPDQSQTKVTKNILHCLKHGTQMGWLIDPDEQTVFVYRPQQETEVFDEPDALVPVPSFASELHLSIKDLFSWLL”, the protein production result is given as “not failed”.

Take “MLPDVQLLKPEVPIGLSRVGATGIKKLVEVQREGKRPIILISTFDVFVDLPAHLKGVNLSRNFEVIDEVLETLTAKPIENIEDLVVEIADHLLKRHEYATKAEARMNSELIMRKRTPKTGQRTQEVVKIFGEATLGRDGSKVIMVGVEVTGITACPCAQELVKASSAERLAKMGFDEETIQKILDAIPVATHNQRGRATLKVQVTDSFKVPIAKLIDVAKSSMSYETYEILKREDELAVVEAAHRNTRFVEDGVRYMAMELLKTFPNAPDDILVFLRQENEESIHQHNVVAERFA”: the protein production entry was “failed”.

As for “MRSGKIASEEYKDNPLTSCGTVRYWAAAKAAAGRHEETFTASTLSDLLEQVRQKYEGNAAMLAVLARSSFLVNATPVGVRPHHEVVLEPGWIVEVLPPFAGG”, the protein production entry is “failed”.

“MALVLVKYGTDHPVEKLKIRSAKAEDKIVLIQNGVFWALEELETPAKVYAIKDDFLARGYSEEDSKVPLITYSEFIDLLEGEEKFIG”: the protein production result is reported as “not failed”.

As for “MMQKPITEIIIVGGGTAGWITAGLLAAEHNVDKGVLAHSPKLNITLIESPDVATIGVGEGTWPSMRSTLSKIGIDENDFIRQCDASFKQGSRFINWCKDPQSNVADSYLHPFSLPHGHQELDLCPYWLPHAEQVSFAEAVCSQQVLTQLGLAPKSIVTAQYHFQNNYGYHLNAAKFSQLLTEHCTQKLGVTHIRDHVSQIINNQHGDIEKLITKQNGEISGQLFIDCTGAKSLLLGEHLQVPFLSQKSVLFNDRALAIQVPYSDANSPIASCTHSTAQPNGWIWDIGLPTRKGVGYVYSSSHTNDIDAQKTLFNYLGVDGAAADKLEPRQLAINPGYRAKCWQNNCIAIGMAAGFIEPLEASALALIEWTASTLAQQLPPNRMVMDTISARVNERYQQHWQQIIDFLKLHYVISQRQEDRYWRDHRESNSIPDSLQAMLELWRYQTPSQQDISYKEALFPAASFQYVLYGMSFNTQLPTHVKPSMQQLAQRLFNDNQQRTQALSKNLPTNRELLDKVAQYGFPKL”, the protein production result was “not failed”.

“MERLISHPPLMIVSDLDHTMVDHQDHENLSLLRFNSLWEYAYRRDSLLVFSTARSPVLYKELRKEKPLLTPDIIITSIGTEIAFGNSMVPDHAWVESLNSCKWNREIVLEETSKFPELTLQPKTEQRLHKVSFYIDEGKGEALTKELSQLLEKRGLDVKIIYSWGKNVDVIPRGAGKGEALEYLLKKLQAEGIFPVNTLACGDSEHDAELFSIPDVHGVMVSNSQEELLKWRSENALNNLKVIHSTERCADGIIQAIGHFNLGPDLSPRDVSEFLDRKMDNVNPGHEVVRFYLFYERLRRGEIKNYETYIASFKDSCAEKSLRDTIDELKKCYGDKRGKKFWVWVDQVLVTDTIPGKWIVKFDKWEQCEDESQCCKTTVEFTSKGGDLVWEKVKQIWSEESKVKDDNSSWIL”: the protein production result is “not failed”.

On to “IGPPESWPQALKTAVRIMLTSQQPIWIGWGTELTYLYNDPYKSIIGGKHPWALGRPTSEVWSEIWEDIAPLLAKATSGHEGTYVEAQLLIMERNGFPEETYYTFSYSPIPTDDGSPGGIFCANTDDTQRVITERQLSLLRDLAASAAESRS”, for which the protein production entry was “failed”.

As to “PWQHFIIGSLFGWVHKETKLRRFKEALIFMGRKNGKTTTISGVANYAVSQDGENGAEIHLLANVMKQARILFDESKAMIKASPKLDKNFRTLRDEIHYDATISKIMPQASDSDKLDGLNTHMGIFDEIHEFKDYKLISVIKNSRAARLQPLLIYITTAGYQLDGPLVDMVEAGRDTLDQIIEDERTFYYLASLDDDDDINDSSNWIKANPNLGVSINLDEMKEEWEKAKRTPAERGDFITKRFNIFANNDEMSFIDYPTLQKNNEIVSLEELEGRPCTIGYDLSETEDFTAACATFALDNGKVAVLSHSWIPKHKVEYSNEKIPYREWEEDGLLTVQDKPYIDYQDVLNWIIKMNEHYVVEKITYDRANAFKLNQELKNYGFETEETRQGALTLSPALKDLKEMFLDGKIIFNNNPLMKWYINNVQLKLDRNGNWLPSKQSRYRKIDGFAAFLNTYTDIMNKVVSDKGEGNIEFISIKDIMR”, the protein production entry was “failed”.

For the sequence “MGKEAVTGKVRKLTVQLDHQTGDLKGCSRRGPTPRSRAPGAKLSAPEAGPPRRGPLPRGGAGRDTLLGAKATPSSPAARRYVTALGPPQPRGSTDSACAALPQPVPHEPREAAFRLAPASERGASVSPARIPRRRRRVPAMWDPRAARTPPRELAMLLCNKSNAFYNLGKWNEAFLAAKECLQWDPTYVKGYYRAGYSLLHLLQPYEAARMFFEGLRLLQRSPDQLQVPDFLVGIFTTMSSDSIVLQSFLPCFDHIFTTGFSTEVWQYVIQKLAKKGLWHQSFLLLSAKKDRLPSNIHVSELSLQSLFEKYVFIGFYEKLEQVPKLVQWLVSIGANIETIGPNPLHALMRLCIQARESQLFRWVMDQKPEWKEHINHRDDAGCTVLHVAAAHFPGYTSRRQTEDVQMLLSFGADPTLLDGHARTVVDVLKRNKNFRAIDKINSHLEKLASSSKGLSALQEAFISKQ”, the protein production result is “failed”.

With “MNVLLVSVNREHAPYPVFPLGLACLAGPLRAAGHRLSVLDLCFAADPEEATRQALAEFSPDVVVLSLRNIDNVTYPGSRSYLSGVRDVVAICRERAAVVVGGSGFSLMPREVLAYLGADYGVVGEGEDVLPRLLARIAAGEGGDGLPGVVARENAGFLPPHPVQAIGTPLRGLFQVERYHREGGMANIQTKRGCPFSCIYCTYPLLEGERMRLRPVADIIAEIGDLVDVHGVSYLYFVDDIFNYPLEFALELCRAMSAARLPVAWSAFINPDFLPPQLLDAMLAAGCDALEFGTDSGSPVMLRNLRKSFGIEKVREASRLCREAGVDFAHYILFGGPGETPATIAESFALMDEVAPTAVIAMTGIRIFPGTAIYRQALADGLITPETDLLRPAFYIAPTIADTLCELVREEALKRTNWVVPGLEITANDAMLEALRHFAGPGPLWKMLKLLGRRRGSVPSPWSHSPS”, the protein production result was “failed”.

In the case of “MSRDPILSLPWPDARPLPDTFFDRDALLVARELLGKVIRHRQGNLWLAARIIETEAYYLEEKGSHASLGYTEKRKALFLDGGHIYMYYARGGDSLNFSAGGPGNAVLIKSGHPWLDRISDHTALERMQSLNPDSQGRPREIGRLCAGQTLLCKAMGLKVPEWDAQRFDPQRLFVDDVGERPSQVIQAARLGIPKGRDEHLPYRFVDAAFAAFCTRNPLRRGQVAGRDYHLLGHQDPHLQ”, the protein production entry was “failed”.

Regarding “SISNRDTNGMPFAKETLEQQQAVEKKNEILEMSYEIAKLLETGLDRETLQVAIELLEQGFDPYALASVIKELKRGNNQTTE”, the protein production entry was “failed”.

Consider “KLHYKQIVWVKLGNYRWWPAEICNPRSVPLNIQGLKHDLGDFPVFFFGSHDYYWVHQGRVFPYVEGDKSFAEGQTSINKTFKKALEEAAKRFQELKA”, for which the protein production result is given as “not failed”.

Regarding “MLISIAFLLVLYLLNYSSFRMLKSFLTLKKISQYAYLWFFILLSIGEAAFVFYRNIMPSHLFVLTSACSFVSFIIFILSLSFYGFSYSIEKIDFLHSRRKSLKNFLKLGFYLALLGYFWRGFYEGLARPKIKETPIYLDKLDKELKIILLTDMHVGSLLQKDFVDYIVEEVNQKEVDMVLIGGDLVDESIEKVKSFLLPLNNLKSTHGTFYVPGNHEYYHGIEPILSFLDTLNLTILGNECVHLGGINLCGVYDYFARKRQNFAPDIDKALKKRNESKPTILLAHQPKQIRSLKESHSVDLVLSGHTHAGQIFPFSLLVKLAQTYLHGLYKHSPTTQIYVSSGAGYWGIPLRFLAPSEIAYLRLLPKNQA”, the protein production result is given as “failed”.
